This is an account of results in publication doi:10.1101/2025.07.21.665964.

In this assay the target is Avi-GST-CMG2^ABD. The assay can be described thus: BLI.

As a reminder, the Kd is a measure of binding affinity in units of concentration. In turn, “purified actin (polymerized F-actin) (from UniProt P60709 1-375) (natural protein)” came in with a dissociation constant (Kd) of 10 nM.
